{"source": "paper PMC11592472", "key": {"[1]": {"molecular_target": "equine LH/CGR trileucine mutant eLH/CGR-AAA (equine)"}, "[2]": {"molecular_target": "equine LH/CGR trileucine mutant eLH/CGR-ALL (equine)"}, "[3]": {"molecular_target": "equine LH/CGR trileucine mutant eLH/CGR-LAL (equine)"}, "[4]": {"molecular_target": "equine LH/CGR trileucine mutant eLH/CGR-LLA (equine)"}, "[5]": {"molecular_target": "equine lutropin/choriogonadotropin receptor, wild type (eLH/CGR-wt) (equine)"}}}
{"substance": "recombinant equine chorionic gonadotropin (rec-eCG) (from UniProt P01220 25-120; P08751 21-169) (ligand)", "values": [{"measurement": "EC50 of the cAMP response (HTRF) of transfected CHO-K1 cells stimulated with rec-eCG for 30 min at room temperature", "setting": "[1]", "result": 0.0352, "unit": "µg/mL"}, {"measurement": "EC50 of the cAMP response (HTRF) of transfected CHO-K1 cells stimulated with rec-eCG for 30 min at room temperature", "setting": "[2]", "result": 0.0046, "unit": "µg/mL"}, {"measurement": "EC50 of the cAMP response (HTRF) of transfected CHO-K1 cells stimulated with rec-eCG for 30 min at room temperature", "setting": "[3]", "result": 0.0143, "unit": "µg/mL"}, {"measurement": "EC50 of the cAMP response (HTRF) of transfected CHO-K1 cells stimulated with rec-eCG for 30 min at room temperature", "setting": "[4]", "result": 0.0197, "unit": "µg/mL"}, {"measurement": "EC50 of the cAMP response (HTRF) of transfected CHO-K1 cells stimulated with rec-eCG for 30 min at room temperature", "setting": "[5]", "result": 0.0185, "unit": "µg/mL"}]}
